# The nanobody polyreactivity screen of Harvey et al. (2022)
# Experiment: yeast display, Sf9 membrane polyspecificity reagent, FACS + sequencing; frameworks hold sequencing errors
# Procedure, shortened: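 Nanobodies came from a synthetic yeast display library in Saccharomyces cerevisiae BJ5465, induced with galactose for 36–48 hours and stained for 1 hour at 4 °C with 10% biotinylated, detergent-solubilized Sf9 membrane reagent. Cells were enriched on streptavidin microbeads and then FACS-sorted, with low and high (top ~1%) gates set on anti-HA fluorescence for expression and streptavidin fluorescence for reagent binding. Each polyreactivity label reflects the gate a clone came from. Genes were amplified by colony PCR, sequenced by MiSeq 2 × 250 and filtered by CDR length.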
row,Sequence,polyreactivity (PSR sort gate)
1,QVQLVESGGGLVQAGGSLRLSCAASGRIFYDNAMGWYRQAPGKERELVAAISYSGDSTYYADSVKGRFTISRDNAKNTVYLQMNSLKPEDTAVYYCAAVYISQGAFAYDYWGQGTQVTVTS,low polyreactivity
2,QVQLVESGGGLVQAGGSLRLSCAASGRIFYDYAMGWYRQAPGKERELVAAISKGGGSTYYADSVKGRFTISRDNAKNTVYFQMNSLKPEDTAVYYCASSTSHTTDTRYDYWGQGTQVTVSS,low polyreactivity
3,QVQLVESGGGLVQAGGSLRLSCAASGRIFYDYTMGWYRPAPGKERELVAAINSGGGSTYYADSVKGRFTISRDNAKITVYLQMNSLKPEDTAVYYCNADGQWNIWEYDYWGQGTQVTVSS,high polyreactivity
4,QVQLVESGGGLVQAGGSLRLSCAASGRIFYDYTMGWYRQAPGKERELVAAINSGGGSTYYADSVKGRFTISRDNAKITVYLQMNSLKPEDTAVYYCNADGQWNIWEYDYWGQGTQVTVSS,high polyreactivity
5,QVQLVESGGGLVQAGGSLRLSCAASGRIFYFYAMGWYRQAPGKERELVAAISTSGGSTYYPDSVKGRFTISRDNAKNTVYLQMNSLKQEDTAVYYCAARFRYYGSEYDYWGQGTQVTVSS,low polyreactivity
6,QVQLVESGGGLVQAGGSLRLSCAASGRIFYFYAMGWYRQAPGKERELVASISYSGGNTYYADSVKGRFTISRDNAKNTVYLQMNSLKPEDTAVYYCNVLPNTGARGYYYWGQGTQVNVSS,low polyreactivity
7,QVQLVESGGGLVQAGGSLRLSCAASGRIFYFYAMGWYRQAPGKERELVAVISYGGDRTSYADSVKGRFTISRDNAKNTVYLQMNSLKPEDTAVYYCAARPFYRGYYYWGQGTQVTVSS,high polyreactivity
8,QVQLVESGGGLVQAGGSLRLSCAASGRIFYFYTMGWYRQAPGKEREFVAAISDSGDGTYYADSVKGRFTISRDNAKNTVYLQMNSLKPEDTAVYYCAADGTLFSEYYWFFGYHDYWGQGTQVTVSS,high polyreactivity
9,QVQLVESGGGLVQAGGSLRLSCAASGRIFYGNAMGWYRQAPGKERELVARISSGSSTNYADSVKGRFTISRDNAKNTVYLQMNSLKPEDTAVYYCAARYTARRQSYGYWGQGTQVTVSS,high polyreactivity
10,QVQLVESGGGLVQAGGSLRLSCAASGRIFYGNAMGWYRQAPGKERQLVAAITDGGSTNYADSVKGRFTISRDNAKNTVYLQINSLKPEDTAVYYCNADNILYWSTLDYWGQGTQVTVSS,low polyreactivity
11,QVQLVESGGGLVQAGGSLRLSCAASGRIFYGNDRGWYRQAPGKERELVAAITWSGGSTYYADSVKGRFTISRDNAKNTVYLQMNSLKPEDTAVYYCAAVPRRGWDIRRYDSWGQGTQVTVSS,high polyreactivity
12,QVQLVESGGGLVQAGGSLRLSCAASGRIFYGYAMGWYRQAPGKEREFVAAITSGGRTYYADSVKGRFTISRDNAKNTVYLQMNSLKPEDTAVYYCAAAQYYRYGYWGQGTQVTVSS,high polyreactivity
13,QVQLVESGGGLVQAGGSLRLSCAASGRIFYGYAMGWYRQAPGKEREFVARINVSGTSTFYADSVKGRFTISRDNAKNSVYLQMHSLKPEDTAVYYCAARGLPSNYYYYVHGYIMDYWGQGTQVTVSS,low polyreactivity
14,QVQLVESGGGLVQAGGSLRLSCAASGRIFYGYAMGWYRQAPGKERELVAAITRSSSTYYADSVKGRFTISRDNAKNTVYLQMNSLKPEDTAVYYCNARVWAKYDYWGQGTQVTVSS,high polyreactivity
15,QVQLVESGGGLVQAGGSLRLSCAASGRIFYGYTMGCYRQAPGKETELVASITIRGSRTYYADSVKGRFTISRDNAKNTVYVQMNSLKPEDTAVYYCAADFVPARTVHRYDYWGQGTQVTVSS,low polyreactivity
16,QVQLVESGGGLVQAGGSLRLSCAASGRIFYGYTMGWYRQAPGKERELVAAISWSGGSTYYADSVKGRFTISRDNAKNTVYLQLNSLKPEDTAVYYCNAVTLWYIYGWDYYYWGQGTQVTVSS,high polyreactivity
17,QVQLVESGGGLVQAGGSLRLSCAASGRIFYGYTMGWYRQAPGKERELVAAITRSTGSTYYADSVKGRFTISRDNAKNTVYLQMNSLKPEDTAVYYCAKYGYTNTPKSPMDYWGQGTQVTVSS,low polyreactivity
18,QVQLVESGGGLVQAGGSLRLSCAASGRIFYHNAMGWYRQAPGKERELVAAITWSGGSTYYADSVKGRFTISRDNAKNTVYLQMNSLKPEDTAVYYCAAYFYGRSYGYDYWGQGTQVTVSS,high polyreactivity
19,QVQLVESGGGLVQAGGSLRLSCAASGRIFYHYAMGWYRQAPGKERELVAGINYRGGSTTYADSVKGRFTISRDNAKNTVYLQMNSLKPEDTAVYYCATLYPWKFPIRETGFDSWGQGTQVTVSS,low polyreactivity
20,QVQLVESGGGLVQAGGSLRLSCAASGRIFYHYAMGWYRQAPGTERELVAAINSSGGSTHYADSVKGRFTISRDNAKNTVYLQMNSLKPVDTAVYYCAADGYWRDYSGYWDYYYIYDYWGQGTQVTVSS,low polyreactivity
21,QVQLVESGGGLVQAGGSLRLSCAASGRIFYHYPMGWYRQAPGKEREFVAAISLRAGSTYYADSVKGRFTISRYNAKNNVYLQMNSLKPEDTAFYYCAARRASYVTSRYDYWGQGTQVTVSS,high polyreactivity
22,QVQLVESGGGLVQAGGSLRLSCAASGRIFYINDMGWYRQAHGKERELVAAISASGGSTYYADSVKGRFTISRDNAKNTVYLQMNSLKPEDTAVYYCAAVYFHPGYDLFDYWGQGTQVTVSS,low polyreactivity

row,Sequence,polyreactivity (PSR sort gate)
1,QVQLVESGGGLVQAGGSLRLSCAASGRIFYIYAMGWYRQAPGKERELVAAISSGGTTNYADSVKGRFTISRDNAKNTVYLQMNSLKPEDTAVYYCAAYWRSRNRFYWGQGTQVTVSS,high polyreactivity
2,QVQLVESGGGLVQAGGSLRLSCAASGRIFYKYAMGWYRQAPGKERELVAAISYSGGSTYYADSVKGRFTISRDNAKNTVYLQMKSLKPEDTAVYYCNAKPPYGVRSWGDYWGQGTQVTVSS,low polyreactivity
3,QVQLVESGGGLVQAGGSLRLSCAASGRIFYLNAMGWYRQAPGKERELVAAITRSAASTHYADSVKGRFTISRDNAKNTVYLQMNSLKPEDTAVYYCAARFWYDYRHYDYWGQGTQVTVSS,low polyreactivity
4,QVQLVESGGGLVQAGGSLRLSCAASGRIFYLNAMGWYRQAPGKERQLVATITSGGSTNYADSVKGRFTISRDNAKNTVYLQMNSLKPEDTAVYYCAAGVSWYGPYDYLWFYAFDYWGQGTQVTVSS,low polyreactivity
5,QVQLVESGGGLVQAGGSLRLSCAASGRIFYLNGKGWYRQAPGKERELVAAISSSDDSTYYADSVKGRFTISRDNAKNTVYLQMKSLKPEDTAVYYCAAGYHQVQNYGDAYYWSELYSWGQGTQVTVSS,low polyreactivity
6,QVQLVESGGGLVQAGGSLRLSCAASGRIFYLNGMGWYRQAPGKERELLAAISSSDDSTYYADSVKGRFTISRDNAKNTVYLQMISLKPEDTAVYYCAAGYHHVQNYGDAYYWSELYSWGQGTQVTVSS,low polyreactivity
7,QVQLVESGGGLVQAGGSLRLSCAASGRIFYLNVMGWYRQAPGKERELVAAITRRDVTTYADSVKGRFTISRDNAKNTVYLEMNSLKPEDTAVYYCNAVYYNWIGFDYWGQGTQVTVSS,low polyreactivity
8,QVQLVESGGGLVQAGGSLRLSCAASGRIFYLYTMAWYRQAPGKERELVAAITWSGGRTFYADSVKGRFTISRDNAKNTVYLQMNSLKPEDTAVYYCAARAYDSVGKYYYWGQGTQVNVSS,high polyreactivity
9,QVQLVESGGGLVQAGGSLRLSCAASGRIFYLYTMGWYRQAPGKERELVAAITWSGGRTFYADSVKGRFTISRDNAKNTVYLQMNSLKPEDTAVYYCAARAYDSVGKYYYWGQGTQVTVSS,high polyreactivity
10,QVQLVESGGGLVQAGGSLRLSCAASGRIFYNNVMGCYRQAPGKERELVAAISGNGGSTYYADSVKGRFTISRDNAKNTVYLQMNSLKPEDTAVYYCAARSSFRTLIFYQKFDYWGQGSQVTVSS,low polyreactivity
11,QVQLVESGGGLVQAGGSLRLSCAASGRIFYNYAMGWYRQAPGKERELVAAISGSGGSTYYADSVKGRFTISRDNAKNTVYLQMNSLKPEDTEVYYCSTSGPQYYSRNFDYWGQGTQVTVSS,low polyreactivity
12,QVQLVESGGGLVQAGGSLRLSCAASGRIFYNYAMRWYRQAPGKERELVAAISGSGGSTYYADSVKGRFTISRDNAKNTVYLQMNSLKPEDTAVYYCSTSGPQYYSRNFDYWGQGTQVTVSS,low polyreactivity
13,QVQLVESGGGLVQAGGSLRLSCAASGRIFYNYGMGWYRQAPGKERELVAAISSSGGSTSYADSVKGRFTISRDNAKNTVYLQMNSLKPEDTAVYYCAASWPRWWRFGYWGQGTQVTVSS,low polyreactivity
14,QVQLVESGGGLVQAGGSLRLSCAASGRIFYPNALGWYRQAPGTERELVAAITWRGGRTYYADSVKGRFTISRDNAKNTVYLQMNSLKPEDTAVYYCNAVAPGKYNHWGQGTQVTVSS,high polyreactivity
15,QVQLVESGGGLVQAGGSLRLSCAASGRIFYPNAMGWYRPAPGKVRELVAGISRSGGSTYYADSVKGRFTLSRDNAKNTVYLQKNSLKPEDTAVYYCAARYYASDRHFRGDYWGQGTQVTVSS,low polyreactivity
16,QVQLVESGGGLVQAGGSLRLSCAASGRIFYPYAMAWYRQAPGKERELVAAISGSGARKYYADSVKGRFTISRDNAKNTVYLQMNSLKPEDTAVYYCARYQSNSDVYWGQGTQVTVSS,high polyreactivity
17,QVQLVESGGGLVQAGGSLRLSCAASGRIFYPYAMGWSRQAPGKERELVASISGRGTTTYYADSVKGRFTISRDNAKNTVYLQMNSLKPEDTGVYYCNAYPPTQYGYYYWGQGTQVTVSS,high polyreactivity
18,QVQLVESGGGLVQAGGSLRLSCAASGRIFYPYAMGWYRPAPGKERELVAVINGSGGSTYYADSVKGRFTISRDNAKNTVYLPMNSLKPEDTAVYYCAADYPKTYTSKFNYWGQGTQVTVSS,high polyreactivity
19,QVQLVESGGGLVQAGGSLRLSCAASGRIFYPYAMGWYRQAPGKERELVAAIDFSDGNSYYADSVKGRFTISRDNAKNTVYLQMYSLKPEDTAVYYCAVDYTGAWIGVWYDYWGLGTQVTVSS,high polyreactivity
20,QVQLVESGGGLVQAGGSLRLSCAASGRIFYPYAMGWYRQAPGKERELVAAIDWTAGGTYYADSVKGRFTISRDNAKNTVYLQMNSLKPEDTAVYYCAAEYYIEANGDYWGQGTQVTVSS,low polyreactivity
21,QVQLVESGGGLVQAGGSLRLSCAASGRIFYPYAMGWYRQAPGKERELVADISSAGSTYYADSVKGRFTISRDNAKNTVYLQMNSLKPEDTAVYYCAADRTSGAYYFRFLYDRDYWGQGTQVTVSS,low polyreactivity
